For three molecules, IC50, IC50 of signaling inhibition (canine IL-31 induced pSTAT in DH82 monocytes) and inhibition of IL-31-induced pSTAT3 signaling phosphorylation results are on record in patent US20210079054A1 (published 2021).

Assay [1] concerns the target T1, recombinant human IL-31 protein (UniProt Q6EBC2 24-164).
T1 chain: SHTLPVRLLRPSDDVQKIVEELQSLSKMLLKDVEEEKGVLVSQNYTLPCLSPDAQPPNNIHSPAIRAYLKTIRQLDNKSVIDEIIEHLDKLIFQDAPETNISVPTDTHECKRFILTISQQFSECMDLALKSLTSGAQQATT
The assay can be described thus: inhibition of IL-31/IL-31Rα interaction (ELISA); polyclonal IgG.

The target in assay [2] is recombinant canine IL-31 protein with C-terminal 6-His tag, secreted from Expi293 cells (canine). The assay can be described thus: cell-based or functional assay.
Sequence of recombinant canine IL-31 protein with C-terminal 6-His tag, secreted from Expi293 cells (canine) (chain, as listed by the source, form in doubt): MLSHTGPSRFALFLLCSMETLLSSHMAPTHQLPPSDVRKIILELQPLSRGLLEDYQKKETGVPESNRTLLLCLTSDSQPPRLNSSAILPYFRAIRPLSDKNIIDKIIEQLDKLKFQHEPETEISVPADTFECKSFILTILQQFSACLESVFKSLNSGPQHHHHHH

B1: SEQ ID NO: 87 (protein)
chain: ISITEIKGVIVHRIETILFKKKKLDNKSVIDEIIEHLDKLIFQDAPETNISVPTDTHECKRFILTISQQFS
On to B1, for which the IC50 in assay [1] is 0.277 µg/mL.

B2: Cytopoint (anti-IL-31 mAb), monoclonal antibody to canine IL-31 (antibody, INN chains, looked up, V domains shown)
VH: EVQLVESGGDLVKPGGSLRLSCVASGFTFSNYGMSWVRQAPGKGLQWVATISYGGSYTYYPDNIKGRFTISRDNAKNTLYLQMNSLRAEDTAMYYCVRGYGYDTMDYWGQGTLVTVSS
VL: EIVMTQSPASLSLSQEEKVTITCKASQSVSFAGTGLMHWYQQKPGQAPKLLIYRASNLEAGVPSRFSGSGSGTDFSFTISSLEPEDVAVYYCQQSREYPWTFGQGTKLEIK
Take B2: in assay [2], the IC50 of signaling inhibition (canine IL-31 induced pSTAT in DH82 monocytes) came out at 3.21 µg/mL and the inhibition of IL-31-induced pSTAT3 signaling phosphorylation was 50 to 75%.

B3: SEQ ID NO: 99 (protein)
chain: ISITEIKGVIVHRIETILFKKKKAIRAYLKTIRQLDNKSVIDEIIEHLDKLIFQDAPETNISVPTDTHECKRFILTISQQFSESMDL
As to B3, the IC50 in assay [1] came to 1.23 µg/mL.
